Data published in the PETadex activity labels.

B1: unnamed (protein)
chain: MDPSLKRALGLVVALTAAMLFSASASAQNPPPDDDPEPCQTDCDDGGNGGYTRGPDPTDSYLEASSGPYNVATSNVSSFVSGFGGGTIHYPTNTSGSMGGIVVIPGYVSYESSIEWWGPRLASHGFVVMTIDTNSIYDQPGSRKDQIDAALDYLVGQSNASSSAISGMVDGDRLAAVGWSMGGGGTLQLAAEPGRLKAAMPLAPWNSSFNDFDQIQTPTLIFACESDAVAPVSSHASPFYNDIPDATDKAFFEMNNGSHTCANGGNAYDELLGKYGVSWMKLHLDEDQRYEQFLCGPNHESEYQVS
B2: unnamed (protein)
chain: MPTPNTRPTPFGRLLQVTLAVSALALSLGAQAQQTGADPTTAILEAPAGPLAVSNVKVATPSGFGSGTVYYPTTGKGPYGLVSVTPGFVEGEWAINWLGPLLASHGFVVVTIGTTTILDAPTSRAKQMMAALKQVTALSATKTSPFAGKVDPSRLAVMGHSMGGGGSLDAARDNPNLKAAIPLAPWETTKDYSKITVPTLIVSCDSDVIAPVADHANKFYDSLTPTLTKALVEMKGAGHFCTNGTAIPATRTLVGKYSISWLKRFVDGDTRYSPFLCGAPHQADLAGSLISTYKGNCPY
B3: unnamed (protein)
chain: MIEIRSSYKSKKTNCKRSVMPSMITKKAALPFVISSALLFSASAFAITPPSDPDPDPTPCEGDCDFTRGPDPTESMLEARSGPFNVDTVNVSSRVSGFGGGTIHYPTNTSGQMGAIVVAPGFVSPESSIGWWGPQLASHGFIVMTIATNSLYDQPDSRRDQLEAGLDYLISQSNSSGSDISGMVDSSRLGAMGWSMGGGGALQLAADGRLSAAIPLAPYNSSRNDFDDITTPTLIFACENDAVAAVRSHASPFYNDIPGSTDKAFVEINGGAHSCANGGNTNNSLLSKYGVSWMKLHLDQDQRYSQFLCGPNHESDRSISEYRGTCPY
B4: unnamed (protein)
chain: MERKNSRRSWAIGLGLLVLAATSAHAQTNPYQKGPDPTSASLNATSGSFSVATSSVSSAVSGFGGGTIYYPTTTGTYAVLAISPGFTATQSSIAWLGRRIATHGFVVITIDTNSTLDQPPSRATQLMAALNYVTNSSSATVRAKVDASRRGVAGHSMGGGGTLYAARDNPSLKAAVPLTAWSTLKSFSSVQVPTLVVGAESDSIAPVSSHSIPFYNSLSGSLDKAYAELNGASHLAPNSTNTPIGRYSVAWVKRFMDNDTRYTPFLCGTPHT
B5: unnamed (protein)
chain: MKFQRFLQATVLAGATLLSFGAAAIEIGPAPTKASLEASRGPFSVGQFTVSRPSGYGAGTVYYPTNAGAKVGAIAIVPGFVSYQSSIAWWGPRLASHGFVVITIDTNTTVDQPDSRSRQQLAALDQVIALSKTSSSPIYNKVDENRTGVMGWSMGGGGSLISAKNRPSIKAAAPQAPWNSSTNFSSVTVPTLIFACQSDIVAPVAQHASPFYNSITRAPKQYLEKTLGDHFCFNSANATVGLKGVAWMKRFIDGDTRYTSFACSNPNALGFSDFRTARCS
B6: unnamed (protein)
chain: MEISKKKCLIGLGLMAMAMGVQAQTNPLAKGPDPTNASIQANGPFAVTTVTISNANANGYGGATVYVPTAAGTYALVAFSPGFTARQDTIAVIGRRLATHGFVVATIDTNSTLDLPDSRGTQLLAALRSVAALNAGNTAAAGKIDTTRLVVTGHSMGGGGTLFASRTNTAIKAGVPIAPFSSGVKNFATPVPQFILGGEVDNVAPVDEHSIPFFNGLPNATPKVYAELNGEDHFFVSESTPNQPASKFQIAWIKRFADNDARYTQFVNSAGVAVERNNGRLSDGRLESF
B7: unnamed (protein)
chain: MIMKNIDRRLRHCAVGLGLLLLAAVAQAQTNPLAKGPDPTSDLLNATAGPFAVATTSVSSSVSGFGGGTVYYPTASGSYATVAVCPGFTATQSSIAWIGRRMASHGFVVMTINTNSTLDQPPSRATQLMAALRYLTNSSNSTVRARVDANRLGVAGHSMGGGGTLMAARDNPTLKAAVPMTPWSQTKSFSTVRVPTLIVGAENDSVAPVASHSIPFYTSLSGSLDKAYAELNNASHFAPNSTNTPIGRYSVAWVKRFMDNDTRY
B8: unnamed (protein)
chain: MKTSRTRTATTTLTRLARLALAAAALLLSAAAQAQSSNPYQRGPDPTAASLEASAGPFAVSTTTVSSASGFGGGTIYYPTNTEGPFAAIAVVPGFTATQSSISWWGPRLASHGFVVITIDTNSTFDQPASRATQLMAALNYVVSLSNTSSSPIYGKVDSNRLGVMGHSMGGGGTLIAARDNPTLKAAIPLAPWNSSTNFSSVTVPTLIIACENDTVAPVSSHASPFYNSIPSSTDKAYLEINGGDHFCANSGNSNKAILGKYGVAWMKRFLDNDTRYSPFLCGAPHQADLSGSAISEYRDNCPY
B9: unnamed (protein)
chain: MRACCAFNSTIPGDTMSLQLTKHFGLAALACAALMSLGAAAHAQSYQKGPNPTASALERAGPFATRTTDVSRYSVTNFGGGTIYYPTAAGQYGAIAVSPGYTASKSTVTFWGERLSSHGFVVIVIDTLTTLDQPASRARQLKAALDKVVSLSRSSSSPIYNKVDPNRLAVMGHSMGGGGTLQAAKDNPGLKAAIPMAPWNTVTNWSAVTVPTLVMACQADAIAPVANHAVPFYNSMSANKKSYIEMAGDDHLCVMNGGGHDATLGKMGIAWMKRFVDNDTRYSPFLCGLPYQATVNTSEVSVHRNNCPY
B10: unnamed (protein)
chain: MRKISFKASLFSTLTLLASSITYAGGGGGNGGNNNGGLPAPDTCEVNCGYNQGSNPSLNSLQSTRGNFSVATSNVPRSVPGFGGGTIYYPRNTSGELATIAIAPGFTAPQDAISWWGPVLASNGFVVITIDTNSRLDQPISRGRQLDSALSYLISQGNSSNSPISGMVDENRLASMGHSMGGGGALRSASRNRLSAAIPLAPFNVGGNSFNDIEVPTMIMACENDGTAPVNIHASPFYNRIPSSTDKALIELDNGNHSCANGGSGRNNAVLATYGVSWMKRFLDKDQRFIPFLCGPNHEANRGISDYRD
B11: unnamed (protein)
chain: MAKDRAGDVAAAKLNKSHLRGSPMEITQRGARILGTKCAASLGLLLLAATAAHAQSNPYAKGPDPTSSSLNASAGPFSVATSSVSSLAAVGFGSGTVYYPTTAGSYAAIAISPGFTATESSIAWLGRRVATHGFVVITINTNSTLDQPPSRATQLMAALRYLTNSSSSTVRSRIDTTRLGLAGHSMGGGGTLIAARDNPSLKAAVPLTAWSVTKSFSTMRVPTLVVGAENDSIASVSSHSIPFYNSLPSSLSKAYAELNGASHFAPNTTNTPIGRYTVAWVKRFMDNDTRYSPFLCGSPHDSYATGLVFSDYRDNCPY
B12: unnamed (protein)
chain: MFGKFPFARAGLAVGALLLSAAAVAQTNPYQRGPDPTVASLEATRGSFATSSFTVSRPSGYGAGTVYYPTNAGGKVGAIAVVPGFTARQSSINWWGARLASHGFVVITIDTNSTLDQPSSRSSQQMAALRQVVTLAGTTSSPIYNKVDTARLGVMGWSMGGGGSLISAKNNPTLRAAAPQAPWAQESFSTVTVPTLIISCESDTIAPNNTHSFPFYNQMTRNKKANLVINGGSHSCANSGNADAGLIGKYGVAWMKRFMDDDTRFSKFLCGAEHTADLSKRAIEAYKENCPY
B13: unnamed (protein)
chain: MRSAKTSVLAAVALGAAALLALGACGGSNNPYIRGDDPTEESLSRPGPYAVKSLTEGDRNGPGYGGGTIYYPTDAEPPFAAVAIVPGFTSPQSSIASWGPFLASHGIVAMTIDTNSTFDQPDTRAAALLDALESIKGENTRAGSPLKGKLDTNRLGVMGWSMGGGGTLIAAKDNPELKAAISLCPWNPGSSYSNTKVPTLMIASQADPLAGVSGHSQPFYDSIPDSTPKMLFEVAGGDHFVANNPANGNGQVGRYGLSWLKRFLEGDERYRPFLLEKPPGASDYRTNVY
B14: unnamed (protein)
chain: MNSRRASRLARAALAAGALLLSAAALATSNPYQRGPDPTAASLEASRGPFAVSSFTVSRPSGFGAGTVYYPTNAGGTVGAIAVVPGFTARQSSINWWGPRLASHGFVVITIDTNSTSDQPASRATQLMAALRQVVTLSGTSSSPIYNKVDTSRLGVMGWSMGGGGTLIAARNNPTLKAAVPLAPWNSSTNFSSVTVPTLIIACENDTVAPVSSHASPFYNSMTRTEKAYLEINGGSHSCANSGNSNQALLGKYGVAWMKRFMDNDTRYSSFLCGAPHSADLSSKSAISEYRENCPY
B15: unnamed (protein)
chain: MQHSPSTSRTRQRVTGILASLAVAVGVGIAAGPAAQGADNPHERGPDPTESSIEASRGSYSISERNVSSLVSGFGGGTIYYPTTTRDGDFGAVVISPGYTGTERTISWLGPRLASQGFVVLTMATNSIYDQPDSRARQLQAALDYLTDSSPVADRIDADRLALMGHSMGGGGTLRAVDDNPDIKAAIPMTPWHVKKNWSSVSTPTLIFGAENDSVARHETHAEPFYESFDRDLQKAYLELDGASHFAPNSSNTTIAKYSISWLKRFVDDDTRYTQFLCPGPSTGWFSDVEKYESSCPF

Substrate: BHET
Conditions: 120 h

Protein	plate clearing
B1	not clears the plate
B2	not clears the plate
B3	not clears the plate
B4	not clears the plate
B5	not clears the plate
B6	not clears the plate
B7	not clears the plate
B8	clears the plate (z > 3 vs empty vector)
B9	clears the plate (z > 3 vs empty vector)
B10	not clears the plate
B11	not clears the plate
B12	not clears the plate
B13	not clears the plate
B14	clears the plate (z > 3 vs empty vector)
B15	not clears the plate
